In patent publication US20240279331A1 (University of California, published 2024):
Numbering of substitutions follows the chain as printed.

T1: NCR3 on cell (on-cell binding in the affinity-maturation table) (human, UniProt O14931 19-201, limits assumed)
T1 construct: On cell
T1 sequence (looked up): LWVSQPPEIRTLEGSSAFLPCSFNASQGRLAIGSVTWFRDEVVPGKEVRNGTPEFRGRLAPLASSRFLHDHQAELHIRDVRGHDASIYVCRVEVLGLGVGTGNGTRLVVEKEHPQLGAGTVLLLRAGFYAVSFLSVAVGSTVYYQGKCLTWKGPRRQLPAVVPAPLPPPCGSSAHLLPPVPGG

T2: NCR3 (antigen of the ELISA in the affinity-maturation table) (human, UniProt O14931 19-135, limits assumed)
T2 construct: also called Natural Cytotoxicity Triggering Receptor 3
T2 sequence (looked up): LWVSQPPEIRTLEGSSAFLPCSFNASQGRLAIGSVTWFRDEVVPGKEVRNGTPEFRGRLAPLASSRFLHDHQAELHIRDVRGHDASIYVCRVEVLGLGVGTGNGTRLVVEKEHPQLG

B1: NCR3.18.1 (Fab, V domains shown)
VH: EVQLVESGGGLVQPGGSLRLSCAASGFNVSSSSIHWVRQAPGKGLEWVASISSSSGSTSYADSVKGRFTISADTSKNTAYLQMNSLRAEDTAVYYCARRASSRFRSYYDSFYYAGMDYWGQGTLVTVSS
VL: DIQMTQSPSSLSASVGDRVTITCRASQSVSSAVAWYQQKPGKAPKLLIYSASSLYSGVPSRFSGSRSGTDFTLTISSLQPEDFATYYCQQSSSSLITFGQGTKVEIKR
notes: substitutions derived by comparing with parental HC3
B2: NCR3.18.3 (Fab, V domains shown)
VH: B1 VH with A100I, S101G, R103I, F104Y
VL: B1 VL
notes: substitutions derived against parental HC3
B3: NCR3.18.13 (Fab, V domains shown)
VH: B1 VH with A100R, R103Y, F104Y, R105M, S106T
VL: B1 VL
notes: as for B2
B4: NCR3.18.9 (Fab, V domains shown)
VH: B1 VH with A100K, R103S, F104Y, R105W
VL: B1 VL
notes: as for B2
B5: NCR3.18.15 (Fab, V domains shown)
VH: B1 VH with A100T, R103H, F104Y, R105I
VL: B1 VL
notes: as for B2
B6: NCR3.18.12 (Fab, V domains shown)
VH: B1 VH with A100R, S101A, R103Y, F104Y, R105K, S106T
VL: B1 VL
notes: as for B2
B7: NCR3.18.18 (Fab, V domains shown)
VH: B1 VH with A100V, R103N, F104Y, R105M
VL: B1 VL
notes: as for B2
B8: NCR3.18.19 (Fab, V domains shown)
VH: B1 VH with A100V, R103P, F104Y, R105M, M116L
VL: B1 VL
notes: as for B2
B9: NCR3.18.10 (Fab, V domains shown)
VH: B1 VH with A100K, R103Y, F104Y, R105M
VL: B1 VL
notes: as for B2
B10: NCR3.18.14 (Fab, V domains shown)
VH: B1 VH with A100T, S101G, R103Y, F104Y, R105M, S106T
VL: B1 VL
notes: as for B2
B11: NCR3.18.8 (Fab, V domains shown)
VH: B1 VH with A100I, R103Y, F104Y, R105V
VL: B1 VL
notes: as for B2
B12: NCR3.18.7 (Fab, V domains shown)
VH: B1 VH with A100I, R103Y, F104Y, R105I
VL: B1 VL
notes: as for B2
B13: NCR3.18.6 (Fab, V domains shown)
VH: B1 VH with A100I, R103S, F104Y, R105M
VL: B1 VL
notes: as for B2
B14: NCR3.18.4 (Fab, V domains shown)
VH: B1 VH with A100I, R103H, F104Y, R105M
VL: B1 VL
notes: as for B2
B15: NCR3.18.11 (Fab, V domains shown)
VH: B1 VH with A100L, S101G, F104Y
VL: B1 VL
notes: as for B2
B16: NCR3.18.17 (Fab, V domains shown)
VH: B1 VH with A100V, S101G, R103Y, F104Y, R105M
VL: B1 VL
notes: as for B2

Target: T1, NCR3 on cell (on-cell binding in the …)
Experiment: on-cell binding, Fab on NCR3

| EC50 [nM] | Binder |
| --- | --- |
| 2.14 | B1 |
| 1.61 | B2 |
| 2.55 | B3 |
| 2.24 | B4 |
| 6.76 | B5 |
| 2.13 | B6 |
| 3.39 | B7 |
| 1.41 | B8 |
| 4.09 | B9 |
| 3.11 | B10 |
| 2.74 | B11 |
| 3.19 | B12 |
| 4.67 | B13 |
| 1.44 | B14 |
| 1.47 | B15 |
| 2.11 | B16 |

Target: T2, NCR3 (antigen of the ELISA in the …)
Experiment: ELISA, Fab on NCR3

| EC50 [nM] | Binder |
| --- | --- |
| 0.78 | B1 |
| 0.68 | B2 |
| 0.98 | B3 |
| 0.51 | B4 |
| 2.98 | B5 |
| 0.53 | B6 |
| 2.2 | B7 |
| 0.38 | B8 |
| 1.11 | B9 |
| 0.57 | B10 |
| 0.95 | B11 |
| 1.23 | B12 |
| 1.38 | B13 |
| 2.29 | B14 |
| 0.77 | B15 |
| 0.58 | B16 |
